From PMC3505976 come the findings set out here.

For orientation: Kd means the constant that tells how readily two partners part at equilibrium.

The target of data set [1] is T1, mIghmbp2hd-R3H (helicase core + R3H) (mouse, UniProt P40694 1-786).
T1 sequence: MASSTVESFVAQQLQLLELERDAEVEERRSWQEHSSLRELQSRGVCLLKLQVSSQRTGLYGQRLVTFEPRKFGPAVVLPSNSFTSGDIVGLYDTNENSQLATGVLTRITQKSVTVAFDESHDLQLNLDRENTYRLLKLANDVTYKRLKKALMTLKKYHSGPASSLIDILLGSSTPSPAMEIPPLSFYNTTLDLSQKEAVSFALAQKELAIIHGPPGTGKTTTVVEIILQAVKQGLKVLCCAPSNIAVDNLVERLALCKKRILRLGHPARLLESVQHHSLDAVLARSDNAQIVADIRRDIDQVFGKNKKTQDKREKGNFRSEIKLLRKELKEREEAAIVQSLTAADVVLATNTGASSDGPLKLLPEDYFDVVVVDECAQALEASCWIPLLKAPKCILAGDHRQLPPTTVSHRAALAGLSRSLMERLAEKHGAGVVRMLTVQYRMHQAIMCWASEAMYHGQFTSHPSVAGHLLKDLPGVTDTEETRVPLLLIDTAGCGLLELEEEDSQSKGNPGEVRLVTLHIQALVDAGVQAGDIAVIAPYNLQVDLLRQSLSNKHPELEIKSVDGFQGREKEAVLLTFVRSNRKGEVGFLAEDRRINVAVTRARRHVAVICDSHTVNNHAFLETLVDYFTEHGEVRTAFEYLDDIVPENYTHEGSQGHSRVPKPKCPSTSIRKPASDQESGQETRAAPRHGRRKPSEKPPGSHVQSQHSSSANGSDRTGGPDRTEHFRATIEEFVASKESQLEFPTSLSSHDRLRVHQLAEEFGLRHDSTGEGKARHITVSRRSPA
The data set is described as follows: fluorescence anisotropy.

Data set [2] concerns the target T2, hIghmbp2hd (helicase core) (human (Homo sapiens), UniProt P38935 1-652).
T2 sequence: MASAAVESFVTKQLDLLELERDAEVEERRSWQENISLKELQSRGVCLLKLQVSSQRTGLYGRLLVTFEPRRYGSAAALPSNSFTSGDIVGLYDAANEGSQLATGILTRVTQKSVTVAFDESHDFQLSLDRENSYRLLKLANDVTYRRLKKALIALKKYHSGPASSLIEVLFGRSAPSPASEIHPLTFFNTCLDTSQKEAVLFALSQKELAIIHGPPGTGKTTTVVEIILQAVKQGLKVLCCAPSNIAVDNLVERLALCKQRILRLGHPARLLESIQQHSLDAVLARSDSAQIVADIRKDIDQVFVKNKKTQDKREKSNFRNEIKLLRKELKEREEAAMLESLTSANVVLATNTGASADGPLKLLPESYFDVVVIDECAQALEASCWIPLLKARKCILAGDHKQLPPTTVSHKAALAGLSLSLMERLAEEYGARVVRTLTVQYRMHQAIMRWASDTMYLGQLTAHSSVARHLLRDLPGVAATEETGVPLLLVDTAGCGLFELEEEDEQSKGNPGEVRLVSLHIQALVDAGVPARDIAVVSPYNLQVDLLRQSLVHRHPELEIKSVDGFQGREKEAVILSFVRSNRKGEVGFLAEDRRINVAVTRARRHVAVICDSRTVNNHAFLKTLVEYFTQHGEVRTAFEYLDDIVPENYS
The data set is described as follows: fluorescence anisotropy.

The target of data set [3] is T2, hIghmbp2hd (helicase core). The data set is described as follows: crystal structure.

B1: U15 ssRNA (ssRNA)
RNA: UUUUUUUUUUUUUUU
In the case of B1, the Kd in data set [1] worked out at 107 ± 29 nM; in data set [2] it was 1080 ± 130 nM.

B2: A10 ssRNA (ssRNA)
RNA: AAAAAAAAAA
As to B2, in data set [3], the binding result is “binds”.
